The values that follow come from paper PMC9401124.

This experiment deals with EsxT (M. abscessus), co-expressed with EsxU in M. smegmatis (Mycobacterium abscessus ATCC 19977). Description: SEC-MALS; purified EsxU/EsxT complex injected at 10 mg/mL on S200 5/150, 0.8 mL/min, 20 mM Tris pH 8.0, 300 mM NaCl, 5% glycerol. (In general: In gel filtration, larger molecules generally elute earlier.)

By stoichiometry N is commonly meant the number of molecules, sites or subunits per partner or assembly. For “EsxU (M. abscessus), co-expressed with EsxT in M. smegmatis (natural protein)”, the stoichiometry N is 1.
